Measured values published in patent US20170233497A1.
Where a chain is given by its changes, count along the chain named. Names and notes keep the numbering of the source.

B1: CH2-CH3 fragment of human IgG1 with F405L, P01857 224-330 (protein, UniProt P01857-1 224-330, looked up, name in EU numbering, not shown: small tags and cut ends)
chain: GQPREPQVYTLPPSRDELTKNQVSLTCLVKGFYPSDIAVEWESNGQPENNYKTTPPVLDSDGSFLLYSKLTVDKSRWQQGNVFSCSVMHEALHNHYTQKSLSLSPGK
B2: CH2-CH3 fragment of human IgG1 with T350I-K370T-F405L, P01857 224-330 (protein, UniProt P01857-1 224-330, looked up, name in EU numbering, not shown: small tags and cut ends)
chain: B1 chain with T10I, K30T

Target: IgG1Δhinge fragment of IgG1-7D8-K409R (human)
Experiment: native mass spectrometry; CH2-CH3 fragment mixed 24 h with the IgG1Δhinge fragment of IgG1-7D8-K409R (heterodimer)

Row | Binder | Kd [nM]
1 | B1 | 12
2 | B2 | 17
